Data set [1] deals with T1, CREBtide.
T1 chain: KRREILSRRPSYR

For data set [2], the target named is T2, Calmodulin Dependent Protein Kinase Substrate.
T2 chain: PLSRTLSVSS

For data set [3], the target named is T3, Syntide 2.
T3 chain: PLARTLSVAGLPGKK

The target in data set [4] is calmodulin (CalBiochem), P0DP23.

B1: Xpress-CaMK-X1 fusion protein (CaMK-X1 coding sequence fused to the Xpress epitope, stably expressed in HEK293 cells) (protein)
chain: MGRKEEDDCSSWKKQTTNIRKTFIFMEVLGSGAFSEVFLVKQRLTGKLFALKCIKKSPAFRDSSLENEIAVLKKIKHENIVTLEDIYESTTHYYLVMQLVSGGELFDRILERGVYTEKDASLVIQQVLSAVKYLHENGIVHRDLKPENLLYLTPEENSKIMITDFGLSKMEQNGIMSTACGTPGYVAPEVLAQKPYSKAVDCWSIGVITYILLCGYPPFYEETESKLFEKIKEGYYEFESPFWDDISESAKDFICHLLEKDPNERYTCEKALSHPWIDGNTALHRDIYPSVSLQIQKNFAKSKWRQAFNAAAVVHHMRKLHMNLHSPGVRPEVENRPPETQASETSRPSSPEITITEAPVLDHSVALPALTQLPCQHGRRPTAPGGRSLNCLVNGSLHISSSLVPMHQGSLAAGPCGCCSSCLNIGSKGKSSYCSEPTLLKKANKKQNFKSEVMVPVKASGSSHCRAGQTGVCLIM
B1: the “in vitro kinase assay (32P incorporation) with immunoprecipitated CaMK-X1” value in data set [1] is “CaMK-X1 phosphorylated CREBtide and Syntide 2 in vitro”; in data set [2], “In contrast, CaMK-X1 could not phosphorylate control peptide”; in data set [3], “CaMK-X1 phosphorylated CREBtide and Syntide 2 in vitro”. Also, the “in vitro kinase assay (32P incorporation into peptides) with and without calmodulin” value in data set [4] is recorded as “The degree of phosphorylation is augmented in the presence of calmodulin”.

B2: Histidine tagged CaMK-X1 expressed in Sf9 cells and purified with a Ni2+ affinity column (protein)
chain: MGRKEEDDCSSWKKQTTNIRKTFIFMEVLGSGAFSEVFLVKQRLTGKLFALKCIKKSPAFRDSSLENEIAVLKKIKHENIVTLEDIYESTTHYYLVMQLVSGGELFDRILERGVYTEKDASLVIQQVLSAVKYLHENGIVHRDLKPENLLYLTPEENSKIMITDFGLSKMEQNGIMSTACGTPGYVAPEVLAQKPYSKAVDCWSIGVITYILLCGYPPFYEETESKLFEKIKEGYYEFESPFWDDISESAKDFICHLLEKDPNERYTCEKALSHPWIDGNTALHRDIYPSVSLQIQKNFAKSKWRQAFNAAAVVHHMRKLHMNLHSPGVRPEVENRPPETQASETSRPSSPEITITEAPVLDHSVALPALTQLPCQHGRRPTAPGGRSLNCLVNGSLHISSSLVPMHQGSLAAGPCGCCSSCLNIGSKGKSSYCSEPTLLKKANKKQNFKSEVMVPVKASGSSHCRAGQTGVCLIM
Take B2: the “in vitro kinase assay (32P incorporation) with Ni2+ purified CaMK-X1” value was “CREBtide and Syntide 2 are phosphorylated by the purified CaMK-X1” in data set [1]; “Syntide 2 and CREBtide had higher incorporation of ^32P than the control peptide” in data set [2]; “CREBtide and Syntide 2 are phosphorylated by the purified CaMK-X1” in data set [3]. The “in vitro kinase assay (rate of peptide phosphorylation) with and without Ca2+ and calmodulin” value in data set [4] was “The rate of phosphorylation is increased in the presence of Ca^2+ and calmodulin”.
